Source: US20210246166A1 (Bayer, published 2021)
Bridge positions count the residues as written; N and C are the ends. Square brackets hold non-standard residues; d marks the D form. Ends that are not written are not given here. * marks the point of attachment. Pro(3S,4R-methano) = O=C(O)[C@H]1NC[C@@H]2C[C@@H]21; Benzoyl(3-COOH) = O=C(O)c1cccc(C(=O)*)c1; Benzoyl(4-COOH) = O=C(O)c1ccc(C(=O)*)cc1; Oic = O=C(O)[C@@H]1C[C@@H]2CCCC[C@@H]2N1; tBuAla = CC(C)(C)C[C@H](N)C(=O)O; PEG4 = NCCOCCOCCOCCOCCC(=O)O; Pen = CC(C)(S)[C@H](N)C(=O)O; PEG3 = NCCOCCOCCOCCC(=O)O; Orn = NCCC[C@H](N)C(=O)O; PEG2 = NCCOCCOCCC(=O)O; Sar = CNCC(=O)O

B1: Example 495: ((N-Me)G)-IC+SRSLP-(Oic)-I-(Pen)+IPGd-OH (peptide)
peptide: [Sar]ICSRSLP[Oic]I[Pen]IPG[dD]-OH
modifications: disulfide 3-11; N-terminus assumed
SMILES: CC[C@H](C)[C@H](NC(=O)CNC)C(=O)N[C@H]1CSSC(C)(C)[C@@H](C(=O)N[C@H](C(=O)N2CCC[C@H]2C(=O)NCC(=O)N[C@H](CC(=O)O)C(=O)O)[C@@H](C)CC)NC(=O)[C@H]([C@@H](C)CC)NC(=O)[C@@H]2C[C@@H]3CCCC[C@@H]3N2C(=O)[C@@H]2CCCN2C(=O)[C@H](CC(C)C)NC(=O)[C@H](CO)NC(=O)[C@H](CCCNC(=N)N)NC(=O)[C@H](CO)NC1=O
B2: Example 487: ((N-Me)G)-IC+SRSLP-(Oic)-I-(Pen)+IPR-OH (peptide)
peptide: [Sar]ICSRSLP[Oic]I[Pen]IPR-OH
modifications: disulfide 3-11; N-terminus assumed
SMILES: CC[C@H](C)[C@H](NC(=O)CNC)C(=O)N[C@H]1CSSC(C)(C)[C@@H](C(=O)N[C@H](C(=O)N2CCC[C@H]2C(=O)N[C@@H](CCCNC(=N)N)C(=O)O)[C@@H](C)CC)NC(=O)[C@H]([C@@H](C)CC)NC(=O)[C@@H]2C[C@@H]3CCCC[C@@H]3N2C(=O)[C@@H]2CCCN2C(=O)[C@H](CC(C)C)NC(=O)[C@H](CO)NC(=O)[C@H](CCCNC(=N)N)NC(=O)[C@H](CO)NC1=O
B3: Example 491: (3-Carboxybenzoic acid)-GIC+SRSLP-(Oic)-I-(Pen)+IPD-OH (peptide)
peptide: {Benzoyl(3-COOH)}-GICSRSLP[Oic]I[Pen]IPD-OH
modifications: disulfide 3-11
SMILES: CC[C@H](C)[C@H](NC(=O)CNC(=O)c1cccc(C(=O)O)c1)C(=O)N[C@H]1CSSC(C)(C)[C@@H](C(=O)N[C@H](C(=O)N2CCC[C@H]2C(=O)N[C@@H](CC(=O)O)C(=O)O)[C@@H](C)CC)NC(=O)[C@H]([C@@H](C)CC)NC(=O)[C@@H]2C[C@@H]3CCCC[C@@H]3N2C(=O)[C@@H]2CCCN2C(=O)[C@H](CC(C)C)NC(=O)[C@H](CO)NC(=O)[C@H](CCCNC(=N)N)NC(=O)[C@H](CO)NC1=O
B4: Example 485: ((N-Me)G)-IC+SRS-((tBu)A)-PPI-(Pen)+IP-(PEG3(16atoms))-OH (peptide)
peptide: [Sar]ICSRS[tBuAla]PPI[Pen]IP[PEG4]-OH
modifications: disulfide 3-11; N-terminus assumed
SMILES: CC[C@H](C)[C@H](NC(=O)CNC)C(=O)N[C@H]1CSSC(C)(C)[C@@H](C(=O)N[C@H](C(=O)N2CCC[C@H]2C(=O)NCCOCCOCCOCCOCCC(=O)O)[C@@H](C)CC)NC(=O)[C@H]([C@@H](C)CC)NC(=O)[C@@H]2CCCN2C(=O)[C@@H]2CCCN2C(=O)[C@H](CC(C)(C)C)NC(=O)[C@H](CO)NC(=O)[C@H](CCCNC(=N)N)NC(=O)[C@H](CO)NC1=O
B5: Example 494: ((N-Me)G)-IC+SRSLP-(Oic)-I-(Pen)+IPDA-OH (peptide)
peptide: [Sar]ICSRSLP[Oic]I[Pen]IPDA-OH
modifications: disulfide 3-11; N-terminus assumed
SMILES: CC[C@H](C)[C@H](NC(=O)CNC)C(=O)N[C@H]1CSSC(C)(C)[C@@H](C(=O)N[C@H](C(=O)N2CCC[C@H]2C(=O)N[C@@H](CC(=O)O)C(=O)N[C@@H](C)C(=O)O)[C@@H](C)CC)NC(=O)[C@H]([C@@H](C)CC)NC(=O)[C@@H]2C[C@@H]3CCCC[C@@H]3N2C(=O)[C@@H]2CCCN2C(=O)[C@H](CC(C)C)NC(=O)[C@H](CO)NC(=O)[C@H](CCCNC(=N)N)NC(=O)[C@H](CO)NC1=O
B6: Example 526: ((N-Me)G)-IC+SRS-((tBu)A)-P-((1S,2S,5R)-3-azabicyclo[3.1.0]hexane-2-carboxylic acid)-I-(Pen)+IPD-OH (peptide)
peptide: [Sar]ICSRS[tBuAla]P[Pro(3S,4R-methano)]I[Pen]IPD-OH
modifications: disulfide 3-11; N-terminus assumed
SMILES: CC[C@H](C)[C@H](NC(=O)CNC)C(=O)N[C@H]1CSSC(C)(C)[C@@H](C(=O)N[C@H](C(=O)N2CCC[C@H]2C(=O)N[C@@H](CC(=O)O)C(=O)O)[C@@H](C)CC)NC(=O)[C@H]([C@@H](C)CC)NC(=O)[C@@H]2[C@H]3C[C@H]3CN2C(=O)[C@@H]2CCCN2C(=O)[C@H](CC(C)(C)C)NC(=O)[C@H](CO)NC(=O)[C@H](CCCNC(=N)N)NC(=O)[C@H](CO)NC1=O
B7: Example 486: ((N-Me)G)-IC+SRS-((tBu)A)-PPI-(Pen)+IP-(Orn)-D-OH (peptide)
peptide: [Sar]ICSRS[tBuAla]PPI[Pen]IP[Orn]D-OH
modifications: disulfide 3-11; N-terminus assumed
SMILES: CC[C@H](C)[C@H](NC(=O)CNC)C(=O)N[C@H]1CSSC(C)(C)[C@@H](C(=O)N[C@H](C(=O)N2CCC[C@H]2C(=O)N[C@@H](CCCN)C(=O)N[C@@H](CC(=O)O)C(=O)O)[C@@H](C)CC)NC(=O)[C@H]([C@@H](C)CC)NC(=O)[C@@H]2CCCN2C(=O)[C@@H]2CCCN2C(=O)[C@H](CC(C)(C)C)NC(=O)[C@H](CO)NC(=O)[C@H](CCCNC(=N)N)NC(=O)[C@H](CO)NC1=O
B8: Example 490: (4-Carboxybenzoic acid)-GIC+SRSLP-(Oic)-I-(Pen)+IPD-OH (peptide)
peptide: {Benzoyl(4-COOH)}-GICSRSLP[Oic]I[Pen]IPD-OH
modifications: disulfide 3-11
SMILES: CC[C@H](C)[C@H](NC(=O)CNC(=O)c1ccc(C(=O)O)cc1)C(=O)N[C@H]1CSSC(C)(C)[C@@H](C(=O)N[C@H](C(=O)N2CCC[C@H]2C(=O)N[C@@H](CC(=O)O)C(=O)O)[C@@H](C)CC)NC(=O)[C@H]([C@@H](C)CC)NC(=O)[C@@H]2C[C@@H]3CCCC[C@@H]3N2C(=O)[C@@H]2CCCN2C(=O)[C@H](CC(C)C)NC(=O)[C@H](CO)NC(=O)[C@H](CCCNC(=N)N)NC(=O)[C@H](CO)NC1=O
B9: Example 493: ((N-Me)G)-IC+SRSLP-(Oic)-I-(Pen)+IPY-OH (peptide)
peptide: [Sar]ICSRSLP[Oic]I[Pen]IPY-OH
modifications: disulfide 3-11; N-terminus assumed
SMILES: CC[C@H](C)[C@H](NC(=O)CNC)C(=O)N[C@H]1CSSC(C)(C)[C@@H](C(=O)N[C@H](C(=O)N2CCC[C@H]2C(=O)N[C@@H](Cc2ccc(O)cc2)C(=O)O)[C@@H](C)CC)NC(=O)[C@H]([C@@H](C)CC)NC(=O)[C@@H]2C[C@@H]3CCCC[C@@H]3N2C(=O)[C@@H]2CCCN2C(=O)[C@H](CC(C)C)NC(=O)[C@H](CO)NC(=O)[C@H](CCCNC(=N)N)NC(=O)[C@H](CO)NC1=O
B10: Example 497: ((N-Me)G)-IC+SRS-((tBu)A)-PPI-(Pen)+IP-((N-Me)G)-((N-Me)G)-((N-Me)G)-OH (peptide)
peptide: [Sar]ICSRS[tBuAla]PPI[Pen]IP[Sar][Sar][Sar]-OH
modifications: disulfide 3-11; N-terminus assumed
SMILES: CC[C@H](C)[C@H](NC(=O)CNC)C(=O)N[C@H]1CSSC(C)(C)[C@@H](C(=O)N[C@H](C(=O)N2CCC[C@H]2C(=O)N(C)CC(=O)N(C)CC(=O)N(C)CC(=O)O)[C@@H](C)CC)NC(=O)[C@H]([C@@H](C)CC)NC(=O)[C@@H]2CCCN2C(=O)[C@@H]2CCCN2C(=O)[C@H](CC(C)(C)C)NC(=O)[C@H](CO)NC(=O)[C@H](CCCNC(=N)N)NC(=O)[C@H](CO)NC1=O
B11: Example 484: ((N-Me)G)-IC+SRSLP-(Oic)-I-(Pen)+IPD-(PEG2(13 atoms))-OH (peptide)
peptide: [Sar]ICSRSLP[Oic]I[Pen]IPD[PEG3]-OH
modifications: disulfide 3-11; N-terminus assumed
SMILES: CC[C@H](C)[C@H](NC(=O)CNC)C(=O)N[C@H]1CSSC(C)(C)[C@@H](C(=O)N[C@H](C(=O)N2CCC[C@H]2C(=O)N[C@@H](CC(=O)O)C(=O)NCCOCCOCCOCCC(=O)O)[C@@H](C)CC)NC(=O)[C@H]([C@@H](C)CC)NC(=O)[C@@H]2C[C@@H]3CCCC[C@@H]3N2C(=O)[C@@H]2CCCN2C(=O)[C@H](CC(C)C)NC(=O)[C@H](CO)NC(=O)[C@H](CCCNC(=N)N)NC(=O)[C@H](CO)NC1=O
B12: Example 492: ((N-Me)G)-IC+SRSLP-(Oic)-I-(Pen)+IPT-OH (peptide)
peptide: [Sar]ICSRSLP[Oic]I[Pen]IPT-OH
modifications: disulfide 3-11; N-terminus assumed
SMILES: CC[C@H](C)[C@H](NC(=O)CNC)C(=O)N[C@H]1CSSC(C)(C)[C@@H](C(=O)N[C@H](C(=O)N2CCC[C@H]2C(=O)N[C@H](C(=O)O)[C@@H](C)O)[C@@H](C)CC)NC(=O)[C@H]([C@@H](C)CC)NC(=O)[C@@H]2C[C@@H]3CCCC[C@@H]3N2C(=O)[C@@H]2CCCN2C(=O)[C@H](CC(C)C)NC(=O)[C@H](CO)NC(=O)[C@H](CCCNC(=N)N)NC(=O)[C@H](CO)NC1=O

The binders below were run against T1, recombinant rat MASP1 active protease (amino acids 302-704, C-terminal His Tag) (rat, UniProt Q8CHN8 302-704) (assay: cell-based or functional assay).
T1 sequence: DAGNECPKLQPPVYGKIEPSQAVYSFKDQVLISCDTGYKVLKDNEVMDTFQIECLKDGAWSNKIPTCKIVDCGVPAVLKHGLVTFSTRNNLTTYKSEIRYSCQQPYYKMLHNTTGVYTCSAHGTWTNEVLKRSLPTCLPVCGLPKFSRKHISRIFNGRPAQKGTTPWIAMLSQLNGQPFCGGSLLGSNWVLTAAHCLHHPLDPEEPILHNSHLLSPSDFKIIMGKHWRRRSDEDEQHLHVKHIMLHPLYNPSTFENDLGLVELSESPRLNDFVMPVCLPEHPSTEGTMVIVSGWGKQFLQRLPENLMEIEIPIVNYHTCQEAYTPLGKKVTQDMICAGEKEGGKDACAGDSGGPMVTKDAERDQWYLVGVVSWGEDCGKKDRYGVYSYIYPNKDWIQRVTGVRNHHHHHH

Row | Binder | rat MASP1 IC50
1 | B1 | 45 nM
2 | B2 | 67 nM
3 | [(R)‑Piperidine‑3‑Carboxylic Acid]ICSRSLP[Oic]I[Pen]IPD-OH (disulfide 3-11) [Example 488: ((R)-Piperidine-3-Carboxylic Acid)-IC+SRSLP-(Oic)-I-(Pen)+IPD-OH] | 41 nM
4 | B3 | 20 nM
5 | B4 | 36 nM
6 | [(S)‑Piperidine‑3‑Carboxylic Acid]ICSRSLP[Oic]I[Pen]IPD-OH (disulfide 3-11) [Example 489: ((S)-Piperidine-3-Carboxylic Acid)-IC+SRSLP-(Oic)-I-(Pen)+IPD-OH] | 42 nM
7 | [Sar]ICSRS[tBuAla]PPI[Pen]IP-{PEG5‑CH2CO2H(18 atoms)-OH} (disulfide 3-11) [Example 496: ((N-Me)G)-IC+SRS-((tBu)A)-PPI-(Pen)+IP-(PEG5-CH2CO2H(18 atoms))-OH] | 31 nM
8 | B5 | 38 nM
9 | B6 | 485 nM
10 | B7 | 69 nM
11 | [Sar]ICSRS[tBuAla]PPI[Pen]IP-{PEG2-OH} (disulfide 3-11) [Example 498: ((N-Me)G)-IC+SRS-((tBu)A)-PPI-(Pen)+IP-(PEG1(10 atoms))-OH] | 44 nM
12 | B8 | 12.5 nM
13 | B9 | 44 nM
14 | B10 | 58 nM
15 | B11 | 63 nM
16 | B12 | 65 nM

The binders below were run against recombinant rat MASP2 active protease (amino acids 296-685, C-terminal His Tag) (rat, UniProt Q9JJS8 296-685) (assay: cell-based or functional assay).
Sequence of recombinant rat MASP2 active protease (amino acids 296-685, C-terminal His Tag) (Q9JJS8 other isoform, or with tags, fused parts or gaps limits assumed): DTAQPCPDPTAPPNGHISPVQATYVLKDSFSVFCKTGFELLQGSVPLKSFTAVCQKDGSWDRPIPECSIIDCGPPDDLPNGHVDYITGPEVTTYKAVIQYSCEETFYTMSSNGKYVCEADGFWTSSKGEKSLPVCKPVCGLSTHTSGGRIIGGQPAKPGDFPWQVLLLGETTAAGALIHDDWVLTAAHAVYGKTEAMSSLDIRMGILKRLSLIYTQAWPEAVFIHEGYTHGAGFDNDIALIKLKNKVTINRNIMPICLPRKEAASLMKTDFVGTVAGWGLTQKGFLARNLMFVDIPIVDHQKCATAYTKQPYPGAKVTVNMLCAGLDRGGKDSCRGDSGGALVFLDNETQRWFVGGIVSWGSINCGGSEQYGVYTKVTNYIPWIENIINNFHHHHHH

Row | Binder | rat MASP2 IC50
17 | B1 | 66 nM
18 | B2 | 38 nM
19 | [(R)‑Piperidine‑3‑Carboxylic Acid]ICSRSLP[Oic]I[Pen]IPD-OH (disulfide 3-11) [Example 488: ((R)-Piperidine-3-Carboxylic Acid)-IC+SRSLP-(Oic)-I-(Pen)+IPD-OH] | 36 nM
20 | B3 | 23 nM
21 | B4 | 32 nM
22 | [(S)‑Piperidine‑3‑Carboxylic Acid]ICSRSLP[Oic]I[Pen]IPD-OH (disulfide 3-11) [Example 489: ((S)-Piperidine-3-Carboxylic Acid)-IC+SRSLP-(Oic)-I-(Pen)+IPD-OH] | 22 nM
23 | [Sar]ICSRS[tBuAla]PPI[Pen]IP-{PEG5‑CH2CO2H(18 atoms)-OH} (disulfide 3-11) [Example 496: ((N-Me)G)-IC+SRS-((tBu)A)-PPI-(Pen)+IP-(PEG5-CH2CO2H(18 atoms))-OH] | 31 nM
24 | B5 | 62 nM
25 | B6 | 253 nM
26 | B7 | 68 nM
27 | [Sar]ICSRS[tBuAla]PPI[Pen]IP-{PEG2-OH} (disulfide 3-11) [Example 498: ((N-Me)G)-IC+SRS-((tBu)A)-PPI-(Pen)+IP-(PEG1(10 atoms))-OH] | 42 nM
28 | B8 | 15 nM
29 | B9 | 49 nM
30 | B10 | 39 nM
31 | B11 | 88 nM
32 | B12 | 81 nM
